# Results: patent US20190284603A1
# Key:
# [1] = biological target: Mono-nucleosomes from mouse embryonic stem cells (ESCs) (mouse) (UniProt P68433); assay: single-molecule TIRF time-lapse imaging, images every 15 minutes
# [2] = biological target: Recombinant unmodified nucleosomes; assay: single-molecule TIRF time-lapse imaging, summed binding events
time to equilibrium of binding and dissociation [1],percent of nucleosomes scored (bound by antibody) [2],Substance
75 min,–,Tri-Methyl-Histone H3 (Lys4) (C42D8) Rabbit mAb (Alexa Fluor 555 Conjugate) #11960 (antibody)
45 min,–,Tri-Methyl-Histone H3 (Lys27) (C36B11) Rabbit mAb (Alexa Fluor 647 Conjugate) #12158 (antibody)
–,0.1%,Acetyl-Histone H3 (Lys9) (C5B11) Rabbit mAb (Alexa Fluor 647 Conjugate) #4484 (antibody)
